Positions count from the first letter of the chain named.
T1: cynomolgus CGRP receptor (cynoCRLR + cynoRAMP1) (cynomolgus monkey)
T1 chain 1: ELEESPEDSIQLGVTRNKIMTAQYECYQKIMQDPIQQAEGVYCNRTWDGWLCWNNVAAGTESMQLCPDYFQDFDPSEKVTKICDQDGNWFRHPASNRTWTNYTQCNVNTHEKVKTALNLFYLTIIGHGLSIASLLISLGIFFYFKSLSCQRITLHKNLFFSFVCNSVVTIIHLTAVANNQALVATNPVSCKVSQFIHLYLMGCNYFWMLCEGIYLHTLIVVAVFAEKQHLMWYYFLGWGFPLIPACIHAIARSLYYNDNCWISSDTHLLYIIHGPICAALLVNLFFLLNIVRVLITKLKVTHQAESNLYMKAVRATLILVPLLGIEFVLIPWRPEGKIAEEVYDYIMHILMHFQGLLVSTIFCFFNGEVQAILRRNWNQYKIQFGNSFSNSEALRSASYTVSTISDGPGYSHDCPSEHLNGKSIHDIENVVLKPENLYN
T1 chain 2: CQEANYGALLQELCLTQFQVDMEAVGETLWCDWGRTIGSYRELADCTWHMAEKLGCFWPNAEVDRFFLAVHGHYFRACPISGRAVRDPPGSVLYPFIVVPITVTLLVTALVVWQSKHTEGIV

B1: 13H2 (antibody, human IgG2, kappa, V domains shown)
VH: EVQLVESGGGLVKPGGSLRLSCAASGYTFSTYSMNWVRQAPGKGLEWVSSISSSSSYRYYADSVKGRFTISRDNAKNSLYLQMSSLRAEDTAVYYCAREGVSGSSPYSISWYDYYYGMDVWGQGTTVTVSS
VL: DIQMTQSPSSLSASVGDRVTITCRASQGIRKDLGWYQQKPGKAPKRLIYGASSLQSGVPSRFSGSGSGTEFTLTISSLQPEDFATYYCLQYNSFPWTFGQGTKVEIKR
notes: also called 13H2.2
B2: 1E11 (antibody, human IgG2, lambda, V domains shown)
VH: QVQLVESGGGVVQPGRSLRLSCAASGFTFSSFGMHWVRQAPGKGLEWVAVISFDGSIKYSVDSVKGRFTISRDNSKNTLFLQMNSLRAEDTAVYYCARDRLNYYDSSGYYHYKYYGMAVWGQGTTVTVSS
VL: QSVLTQPPSVSEAPGQKVTISCSGSSSNIGNNYVSWYQQLPGTAPKLLIYDNNKRPSGIPDRFSGSKSGTSATLGITGLQTGDEADYYCGTWDSRLSAVVFGGGTKLTVLG
notes: also called 01E11; 01E11.2
B3: 2E7 (antibody, human IgG2, kappa, V domains shown)
VH: EVQLLESGGGLVQPGESLRLSCAASGFTFSSYAMSWVRQAPGKGLEWVSAISGSGGRTYYADSVKGRFTISRDNSKNTLYLQMNSLRAEDTAVYYCAKDQREVGPYSSGWYDYYYGMDVWGQGTTVTVSS
VL: B1 VL with K31N, Y36F, G50A, F83L, S93I, F94Y
notes: also called 02E7; 02E7.2
B4: 10E4 (antibody, human IgG2, lambda, V domains shown)
VH: QVQLVQSGAEVKKPGASVKVSCKASGYTFTDYYMYWVRQAPGQGLEWMGWISPNSGGTNYAQKFQGRVTMTRDTSISTAYMELSRLRSDDTAVYYCVRGGYSGYAGLYSHYYGMDVWGQGTTVTVSS
VL: not shown
B5: 5F5 (antibody, human IgG2, kappa, V domains shown)
VH: QVQLVESGGGVVQPGRSLRLSCAASGFTFSSYGMHWVRQAPGKGLEWVAVISYDGSHESYADSVKGRFTISRDISKNTLYLQMNSLRAEDTAVYFCARERKRVTMSTLYYYFYYGMDVWGQGTTVTVSS
VL: DIILTQTPLSLSVTPGQPASISCKSSQSLLHSDGKTYLYWYLQKPGQPPQLLIYEVSNRFSGEPDRFSGSGSGTDFTLKISRVEAEDVGTYYCMQSFPLPLTFGGGTKVEIKR
notes: also called 05F5; 05F5.1
B6: 12E8 (antibody, human IgG2, kappa, V domains shown)
VH: B5 VH
VL: B5 VL with I3T, T14S, K35R, T36N, E63L, T90I
notes: also called 12E8.2
B7: 3C8 (antibody, human IgG2, kappa, V domains shown)
VH: B5 VH
VL: B5 VL with T5A, D33A, E63V, T90I
B8: 9D4 (antibody, human IgG2, lambda, V domains shown)
VH: B2 VH
VL: B2 VL with E12A, L40F
notes: also called 09D4; 09D4.2
B9: 4H6 (antibody, human IgG2, kappa, V domains shown)
VH: EVQLVESGGGLVKPGRSLRLSCTASGFTFGDYAMSWFRQAPGKGLEWIGFIRSRAYGGTPEYAASVKGRFTISRDDSKTIAYLQMNSLKTEDTAVYFCARGRGIAARWDYWGQGTLVTVSS
VL: not shown
notes: also called 04H6; 04H6.1

These binders were tested against T2, human CGRP receptor (CRLR + RAMP1) (human, UniProt Q16602 23-461; O60894 27-148) (assay: radioligand competition: 125I-CGRP binding to human CGRP receptor on HTB-10 cell membranes, antibody as competitor).
T2 construct: also called hCGRP R; huCGRP R
Procedure: (§1) The plates were incubated at room temperature for 2 hours with shaking at 60 rpm, and then the contents of each well were filtered over 0.5% polyethyleneimine (PEI)-treated (for at least one hour) GF/C 96-well filter plates. The GF/C filter plates were washed six times with ice-cold 50 mM Tris, pH 7.5 and dried in an oven at 55° C. for 1 hour. The bottoms of the GF/C plates were then sealed. 40 μl Microscint™ 20 was added to each well, the tops of the GF/C plates were sealed with TopSeal™-A (a press-on adhesive sealing film), and the GF/C plates were counted with TopCount NXT (Packard). The data were analyzed using Prizm (GraphPad Software Inc.)

IC50 (read off the curve) [nM]	Binder
~0.1	B1
~0.03	B2

Each binder was assayed against human adrenomedullin receptor 1 (hCRLR + hRAMP2) (human, UniProt O60895 43-175) (assay: cell-based or functional assay).

cAMP assay IC50 [nM]	Binder
> 1000	B1
> 1000	B3
> 1000	B4
> 1000	B5
> 1000	B6
> 1000	B7
> 1000	B2
> 1000	B8
> 1000	B9

The binders below were run against T2, human CGRP receptor (CRLR + RAMP1) (assay: cell-based or functional assay).

cAMP assay IC50 [nM]	Binder
1.95	B1
6.3	B3
4.79	B5
2.93	B6
1.77	B2
1.4	B8
3.78	B9

What follows are binders tested against human adrenomedullin receptor 2 (hCRLR + hRAMP3) (human, UniProt O60896 24-148) (assay: cell-based or functional assay).

cAMP assay IC50 [nM]	Binder
> 1000	B1
> 1000	B3
> 1000	B4
> 1000	B5
> 1000	B6
> 1000	B7
> 1000	B2
> 1000	B8
> 1000	B9

What follows are binders tested against human amylin AMY1 receptor (hCTR + hRAMP1) (human, UniProt P30988 25-474) (assay: cell-based or functional assay).

cAMP assay IC50 [nM]	Binder
> 1000	B1
> 1000	B3
> 1000	B4
> 1000	B5
> 1000	B6
> 1000	B7
> 1000	B2
> 1000	B8
> 1000	B9

These binders were tested against rat CGRP receptor (rat, UniProt Q63118 24-464; Q9JJ74 27-148) (assay: cell-based or functional assay).

cAMP assay IC50 [nM]	Binder
> 1000	B1
> 1000	B3
> 1000	B4
> 1000	B5
> 1000	B6
> 1000	B7
> 1000	B2
> 1000	B8
> 1000	B9

Molecular target: T1, cynomolgus CGRP receptor (cynoCRLR + …)
Experiment: cell-based or functional assay

cAMP assay IC50 [nM]	Binder
8.41	B1
5.51	B3
3.23	B4
4.78	B5
4.13	B6
5.32	B7
2.79	B2
2.46	B8
5.59	B9

What follows are binders tested against T2, human CGRP receptor (CRLR + RAMP1) (assay: FACS on AM-1 CHO huCGRP R cells, KinExA n-curve analysis).
Procedure: Briefly, AM-1 CHO huCGRP R-expressing cells, prepared as described above, were plated in 96-well plates at densities of 16,000 or 160,000 cells per well in DMEM medium containing 10% FBS, NEAA, PS, L Glut, NaPyr and 0.05% sodium azide. […] After an overnight incubation at 4° C. in a total volume of 120 μl, on a plate shaker, the cells were washed 2× with PBS+2% FBS, centrifuging and discarding supernatant each time. 100 μl/well of G anti-Hu Fc Cy5 (5 μg/mL; Jackson ImmunoResearch Laboratories Inc., West Grove, Pa., USA) containing 7AAD (5 μl/well) was then added and incubated at 4° C. for 40 min. The cells were washed 2× with PBS+2% FBS, centrifuging and discarding the supernatant each time. 100 μl PBS+2% FBS buffer was then added and analyzed by FACS to determined the binding geomean. The Kd was calculated using KinExA software by taking the negative geomean at each antibody concentration as the amount of free Ab present Rathanaswami, et al., Biochemical and Biophysical Research Communications 334 (2005) 1004-1013.

Kd [nM]	Binder
1.5	B3
2.3	B6
2.5	B8
2.4	B9

These binders were tested against T2, human CGRP receptor (CRLR + RAMP1) (assay: 125I-CGRP competition binding, HTB-10 cell membranes).
Procedure: as §1

Ki [nM]	Binder
0.033	B1
0.117	B3
0.147	B5
0.097	B6
0.03	B2
0.023	B8
0.052	B9

Molecular target: T2, human CGRP receptor (CRLR + RAMP1)
Experiment: cell-based or functional assay
Remark: another data set of the same source

IC50 (read off the curve) [nM]	Binder
~6	B1
~1	B2

From patent US20150376286A1 (Amgen, published 2015)
